Publication PMC5470993, “Discovery and characterization of small molecule Rac1 inhibitors” (Oncotarget, 2017)

Target: Recombinant Rac1 (1-192aa), His-tagged fusion protein (UniProt P63000 1-192)
Assay: pull-down; cell-free: 5 μg purified His-Rac1 in 20 μl GTP binding buffer (20 mM Tris-HCl pH 7.6, 100 mM NaCl, 2 mM MgCl2, 1 mM DTT) with 1% BSA, GTP-γS (0.01-10 μM, or 200 nM after 1 h with compound #1 or #6) for 10 min at room temperature, then 1 h with GST-PAK1 on agarose beads; Rac1 immunoblot
Conditions: both partners purified

binding result: binds
B1: GST-PAK1-PBD (70-117aa) (domain or fragment)
chain: KERPEISLPSDFEHTIHVGFDAVTGEFTGMPEQWARLLQTSNITKSEQ
notes: Held on glutathione/agarose beads; The methods also name a Rac1/Cdc42 assay kit (Upstate Biotechnology); also called GST-PAK1 (RBD); source: E. coli DH5α, purified on glutathione resin; plasmid from Addgene
